Data as given in PMC9517163.

Molecular target: minke whale ACE2, mFc-tagged (minke whale)
Assay: SPR

SARS-CoV-2 Omicron BA.1 receptor-binding domain (RBD) (from UniProt P0DTC2) (domain or fragment)
Kd: 254 nM
